{"source": "paper PMC4724879", "about": "(Chemical science (Royal Society of Chemistry : 2010), 2014)", "proteins": {"B1": {"name": "Helicobacter pylori high temperature requirement A protein (HpHtrA) (enzyme)", "chain": "GNIQIQSMPKVKERVSVPSKDDTIYSYHDSIKDSIKAVVNISTEKKIKNNFIGGGVFNDPFFQQFFGDLGGMIPKERMERALGSGVIISKDGYIVTNNHVIDGADKIKVTIPGSNKEYSATLVGTDSESDLAVIRITKDNLPTIKFSDSNDISVGDLVFAIGNPFGVGESVTQGIVSALNKSGIGINSYENFIQTDASINPGNSGGALIDSRGGLVGINTAIISKTGGNHGIGFAIPSNMVKDTVTQLIKTGKIERGYLGVGLQDLSGDLQNSYDNKEGAVVISVEKDSPAKKAGILVWDLITEVNGKKVKNTNELRNLIGSMLPNQRVTLKVIRDKKERAFTLTLAERKNPNKKETISAQNGAQGQLNGLQVEDLTQETKRSMRLSDDVQGVLVSQVNENSPAEQAGFRQGNIITKIEEVEVKSVADFNHALEKYKGKPKRFLVLDLNQGYRIILVK"}}, "target": "the molecule itself", "assay": "crystal structure"}
{"protein": "B1", "values": [{"measurement": "stoichiometry N", "result": 6}]}
